Consider 17 molecules from US20260234246A1 (CAEDO ONCOLOGY, published 2026).

What is called EC50 is the concentration that produces a half-maximal response. High values mean weaker potency, low ones greater potency. The EC50 (read off the curve) is the midpoint of the concentration-response curve. A lower EC50 (read off the curve) goes with a more potent agent. A word on the Kd: it is the concentration at which binding is half-saturated. Usually koff stands for the rate constant with which the complex falls apart. The kon is a measure of how fast the partners come together.

B1: AO-A IgG1 (AO-176 candidate A) (antibody, V domains shown)
VH: QVQLVQSGAEVKKPGASVKVSCKASGYTFTNYWIHWVRQAPGQGLEWMGYTDPRTDYTEYNQKFKDRVTMTRDTSTSTVYMELSSLRSEDTAVYYCARGGRVGLGYWGQGTLVTVSS
VL: DIVMTQSPDSLAVSLGERATINCRSSQNIVQSNGNTYLEWYQQKPGQPPKLLIYKVFHRFSGVPDRFSGSGSGTDFTLTISSLQAEDVAVYYCFQGSHVPYTFGQGTKLEIKR
notes: Comparator from WO2020/198370; also called AO-A.1; AO-176 A
B2: AO-B IgG1 (AO-176 candidate B) (antibody, V domains shown)
VH: EVQLVQSGAEVKKPGESLKISCKGSGYTFTNYWIHWVRQMPGKGLEWMGYTDPRTDYTEYNQKFKDQVTISADKSISTAYLQWSSLKASDTAMYYCARGGRVGLGYWGQGTLVTVSS
VL: B1 VL
notes: Comparator from WO2020/198370; also called AO-B.1; AO-176 B
B3: AO-C IgG1 (AO-176 candidate C) (antibody, V domains shown)
VH: B1 VH with A16S, N61A, K65Q, D66G, M70I, R72A, T74E, V79A
VL: B1 VL
notes: Comparator from WO2020/198370; also called AO-C.1; SC-AO-C
B4: CO205 humanized IgG4 anti-CD47 antibody (antibody, V domains shown)
VH: QVQLVQSGSELKKPGASVKVSCKASGYTFTNFGMHWVRQAPGQGLEWMGWINTYTGEPTYTDDFKGRFVFSLDTSVSTAYLQISSLKAEDTAVYYCARGDYRYGDSWGQGTTVTVSS
VL: DIVMTQTPLSLSVTPGQPASISCRSSQSLVHSNGKTYLHWYLQKPGQSPQLLIYRVSNRFSGVPDRFSGSGSGTDFTLKISRVEAEDVGVYYCSQSTHVPFTFGQGTKLEIK
notes: also called huCO-mAb
B5: CO201 humanized IgG4 anti-CD47 antibody (antibody, V domains shown)
VH: B4 VH
VL: B4 VL with S48P
notes: also called huCO-mAb
B6: CO-1.4 antibody (chimeric CO-1 IgG4) (antibody)
heavy: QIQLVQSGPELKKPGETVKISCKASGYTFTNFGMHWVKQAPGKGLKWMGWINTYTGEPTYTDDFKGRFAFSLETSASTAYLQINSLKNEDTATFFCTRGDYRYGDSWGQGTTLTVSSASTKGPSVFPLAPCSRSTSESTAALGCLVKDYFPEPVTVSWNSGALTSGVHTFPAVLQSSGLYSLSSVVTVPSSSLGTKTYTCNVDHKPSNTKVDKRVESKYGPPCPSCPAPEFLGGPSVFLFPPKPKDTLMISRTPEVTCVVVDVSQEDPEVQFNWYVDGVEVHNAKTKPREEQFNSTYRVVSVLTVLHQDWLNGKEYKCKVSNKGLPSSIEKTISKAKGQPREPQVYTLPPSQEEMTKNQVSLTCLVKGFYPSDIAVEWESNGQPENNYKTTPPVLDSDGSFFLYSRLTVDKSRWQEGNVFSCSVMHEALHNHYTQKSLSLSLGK
light: DVVMTQTPLSLPVSLGDQASISCRSSQSLVHSNGKTYLHWYLQKPGQSPKLLIYRVSNRFSGVPDRFSGSGSGTDFTLKISRIEAEDLGVYFCSQSTHVPFTFGSGTKLEIKRTVAAPSVFIFPPSDEQLKSGTASVVCLLNNFYPREAKVQWKVDNALQSGNSQESVTEQDSKDSTYSLSSTLTLSKADYEKHKVYACEVTHQGLSSPVTKSFNRGEC
notes: Chimeric: mouse variable domains of mCO-1 with human IgG4 constant regions; also called SC-CO-1.4
B7: CO207 humanized IgG4 anti-CD47 antibody (antibody, V domains shown)
VH: B4 VH with E46K, A97T
VL: B4 VL
notes: also called huCO-mAb
B8: CO202 humanized IgG4 anti-CD47 antibody (antibody, V domains shown)
VH: B4 VH with A97T
VL: B4 VL with S48P
notes: also called huCO-mAb
B9: CO213 humanized IgG4 anti-CD47 antibody (antibody, V domains shown)
VH: B4 VH with E46K
VL: B4 VL with S48P
notes: also called huCO-mAb
B10: CO208 humanized IgG4 anti-CD47 antibody (antibody, V domains shown)
VH: B4 VH with Q43K, E46K, A97T
VL: B4 VL
notes: also called huCO-mAb
B11: CO206 humanized IgG4 anti-CD47 antibody (antibody, V domains shown)
VH: B4 VH with A97T
VL: B4 VL
notes: also called huCO-mAb
B12: CO203 humanized IgG4 anti-CD47 antibody (antibody, V domains shown)
VH: B4 VH with E46K, A97T
VL: B4 VL with S48P
notes: also called huCO-mAb
B13: CO210 humanized IgG4 anti-CD47 antibody (antibody, V domains shown)
VH: B4 VH with A97T
VL: B4 VL with Q50K
notes: also called huCO-mAb
B14: CO204 humanized IgG4 anti-CD47 antibody (antibody, V domains shown)
VH: B4 VH with Q43K, E46K, A97T
VL: B4 VL with S48P
notes: also called huCO-mAb
B15: CO212 humanized IgG4 anti-CD47 antibody (antibody, V domains shown)
VH: B4 VH with Q43K, E46K, A97T
VL: B4 VL with Q50K
notes: also called huCO-mAb
B16: CO211 humanized IgG4 anti-CD47 antibody (antibody, V domains shown)
VH: B4 VH with E46K, A97T
VL: B4 VL with Q50K
notes: also called huCO-mAb
B17: CO209 humanized IgG4 anti-CD47 antibody (antibody, V domains shown)
VH: B4 VH
VL: B4 VL with Q50K
notes: also called huCO-mAb

Residue numbers refer to the chain shown, from its start.

T2 sequence (Q08722 19-139 limits assumed): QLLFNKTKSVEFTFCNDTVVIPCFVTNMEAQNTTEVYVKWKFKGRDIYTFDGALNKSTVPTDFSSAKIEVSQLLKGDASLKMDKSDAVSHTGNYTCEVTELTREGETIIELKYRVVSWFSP

For one assay, the target named is T1, human CD47 on the surface of cells (human cancer cell lines and human red blood cells) (human, UniProt Q08722 19-323).
T1 construct: Native CD47 of human cell lines (Jurkat, Reh, CCRF-CEM and others) and of RBCs from healthy donors; also called cell-surface CD47
T1 sequence (Q08722 19-323 limits assumed): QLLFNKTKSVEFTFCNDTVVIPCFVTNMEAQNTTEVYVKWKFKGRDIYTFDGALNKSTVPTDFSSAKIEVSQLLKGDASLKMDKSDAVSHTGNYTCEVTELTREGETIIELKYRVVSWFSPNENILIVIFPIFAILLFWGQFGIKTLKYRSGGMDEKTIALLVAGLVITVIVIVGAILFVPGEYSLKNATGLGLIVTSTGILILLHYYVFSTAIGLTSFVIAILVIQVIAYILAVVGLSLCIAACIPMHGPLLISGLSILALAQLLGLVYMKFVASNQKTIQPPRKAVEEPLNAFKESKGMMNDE
In words: flow cytometry, FITC-conjugated antibody on Reh cells. (In flow cytometry, cells or beads pass a laser one at a time.)
Procedure: (§1) PBS-washed cancer cell lines or RBCs were pelleted and washed with washing buffer (3% (w/v) BSA, 1% (w/v) sodium azide in PBS) and incubated with Human BD Fc Block for 10 minutes before being plated into a round-bottom 96 well plate (2.5×10⁵ cells per well). Antibodies were conjugated with FITC using the FITC conjugation kit from Abcam. […] All samples were prepared in duplicates. Cells were washed three times and resuspended in cold washing buffer. Cells were kept on ice until analyses by flow cytometry. Excitation wavelength FITC: 488 nm, detection: 530/30 nm.
(§2) 4-parameter curve fitting was performed using GraphPad Prism
The molecule B1 gave a half-maximal effective concentration (EC50) of 0.34 µg/mL.
For the molecule B2, a half-maximal response (EC50) required 3.1 µg/mL.
Still for that read-out and setting: the value for B3 was 10.5 µg/mL.

In a further assay the target is T1, human CD47 on the surface of cells …. In words: flow cytometry, FITC-conjugated antibody on human RBCs.
Procedure: as §1, §2
B1 showed an EC50 of 2.42 µg/mL.
In turn, B2 showed an EC50 of 3.67 µg/mL.
On the same count and under the same terms, for B3 the value was 21.8 µg/mL.

The target is the same in the next assay. In words: flow cytometry, FITC-conjugated antibody on Jurkat cells.
Procedure: as §1, §2
In the case of B1, the midpoint of the response, the EC50, lay at 0.0303 µg/mL.
For the molecule B2, the 50% effective concentration (EC50) came out at 0.0748 µg/mL.
B3 displayed an EC50 of 0.0395 µg/mL.

The target is the same in a further assay. In words: flow cytometry, FITC-conjugated antibody on CCRF-CEM cells.
Procedure: as §1, §2
With B1, it took 0.000285 µg/mL to reach a half-maximal effect (EC50).
Still for that read-out and setting: for B2 the value was 0.000559 µg/mL; for B3, 0.00578 µg/mL.

For the next assay the target is unchanged. As to the kind of experiment: flow cytometry on Jurkat cells, goat anti-human FITC, MFI against log µg/ml.
Procedure: PBS-washed cancer cell lines or RBCs were pelleted and washed with washing buffer (3% (w/v) BSA, 1% (w/v) sodium azide in DPBS) and incubated with Human BD Fc Block for 10 minutes before being plated into a round-bottom 96 well plate (2.5×10⁵ cells per well). […] All samples were prepared in duplicates. The cells were washed twice in washing buffer, followed by 30 minutes incubation with Goat anti-human FITC staining buffer (Goat anti-human FITC diluted 1:200 in washing buffer) on ice, protected from light with slight agitation. The cells were analyzed by flow cytometry after three washes in washing buffer. Excitation wavelength FITC: 488 nm, detection: 530/30 nm.
Take B4: the 50% effective concentration (EC50 (read off the curve)) was roughly 0.08 µg/mL.
As to B5, the “EC50 (read off the curve)” value is roughly 0.07 µg/mL.

Another assay concerns the target T2, recombinant CD47 (recCD47), SinoBiological 12283-H27H-B, biotinylated (human, UniProt Q08722 19-139, biotinylated (AVI-tag)).
T2 construct: Bought protein, 17 kDa; At 17 kDa it can only be a part of it; also called recombinant biotinylated CD47; not shown: C-terminal His- and AVI-tag
As to the kind of experiment: SPR Biacore S200, single-cycle, recCD47 on SA chip 700 RU, antibody as analyte, 25 C, 1:1 model. On the technique in general: In SPR one partner is held on a chip, and binding of the other changes the refractive index at the surface.
For the molecule B6, the Kd is 0.003 nM, the koff worked out at 4.4e-06 s⁻¹ and the kon was found to be 1.5e+06 M⁻¹ s⁻¹.

The next assay addresses T2, recombinant CD47 (recCD47), …. As to the kind of experiment: SPR Biacore S200, single-cycle, recCD47 on SA chip 100 RU, antibody as analyte, 25 C, 1:1 model.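 Also: antibodies were injected over the captured CD47 at a series of concentrations, and KD was derived as the dissociation rate constant divided by the association rate constant.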
Procedure: The binding affinity of the huCO-mAbs to CD47 was determined via surface plasmon resonance (SPR) on a Biacore S200 system. Recombinant biotinylated CD47 was immobilized on an SA streptavidin chip to a level of 100 RU (in 10 mM NaAc pH5.0). The huCO-mAbs reacted with recombinant CD47 at gradient concentrations.
A 1:1 binding model was used to fit the data. […] The affinity constant KD is calculated as kd/kₐ.
In the case of B7, the Kd was found to be 0.0153 nM, the koff was 7.3e-05 s⁻¹ and the kon worked out at 4.8e+06 M⁻¹ s⁻¹.
Consider B8, for which the Kd is 0.023 nM, the off-rate constant (koff) was 0.00012 s⁻¹ and the kon is 5.3e+06 M⁻¹ s⁻¹.
For the molecule B4, the Kd was found to be 0.056 nM, the koff amounted to 0.00046 s⁻¹ and the kon was determined as 8.2e+06 M⁻¹ s⁻¹.
As to B9, the Kd turned out to be 0.032 nM, the koff amounted to 0.00034 s⁻¹ and the on-rate constant (kon) turned out to be 1.1e+07 M⁻¹ s⁻¹.
On to B10, for which the Kd was 0.016 nM, the koff is 8.1e-05 s⁻¹ and the on-rate constant (kon) was 5e+06 M⁻¹ s⁻¹.
B11: the Kd was 0.0205 nM, the koff was 0.0001 s⁻¹ and the on-rate (kon) stood at 5.1e+06 M⁻¹ s⁻¹.
For B12, the dissociation constant (Kd) was determined as 0.0164 nM, the koff was 7.9e-05 s⁻¹ and the kon was 4.8e+06 M⁻¹ s⁻¹.
B13: the Kd worked out at 0.017 nM, the koff stood at 8.3e-05 s⁻¹ and the kon was 4.9e+06 M⁻¹ s⁻¹.
On to B5, for which the Kd was 0.0499 nM, the off-rate (koff) turned out to be 0.00043 s⁻¹ and the kon was 8.7e+06 M⁻¹ s⁻¹.
On to B14, for which the Kd is 0.0149 nM, the koff came out at 8.5e-05 s⁻¹ and the on-rate (kon) turned out to be 5.7e+06 M⁻¹ s⁻¹.
For B15, in that order: 0.0123 nM, 7.2e-05 s⁻¹ and 5.8e+06 M⁻¹ s⁻¹.
In the case of B16, the Kd turned out to be 0.0135 nM, the koff came to 6.8e-05 s⁻¹ and the kon was determined as 5.1e+06 M⁻¹ s⁻¹.
As to B17, the Kd is 0.0386 nM, the koff amounted to 0.00032 s⁻¹ and the kon turned out to be 8.2e+06 M⁻¹ s⁻¹.

Another assay has the same target. In words: SPR Biacore S200, multi-cycle (top 50 nM), recCD47 on SA chip 1330 RU, antibody as analyte, 1:1 model.
For B2, the Kd is 3 nM, the koff came to 0.004 s⁻¹ and the on-rate (kon) is 1.5e+06 M⁻¹ s⁻¹.
As to B3, the Kd amounted to 6 nM, the koff is roughly 0.01 s⁻¹ and the kon was found to be 2.3e+06 M⁻¹ s⁻¹.

The next assay has the same target. In words: SPR Biacore S200, single-cycle (top 1 uM), recCD47 on SA chip 1330 RU, antibody as analyte, 1:1 model.
In the case of B1, the Kd came to 1 nM, the dissociation rate constant (koff) came to 0.0006 s⁻¹ and the kon was found to be 500000 M⁻¹ s⁻¹.

A further assay shares this target. As to the kind of experiment: SPR Biacore S200, single-cycle (top 80 nM), recCD47 on SA chip 1330 RU, antibody as analyte, 1:1 model.
In the case of B1, the dissociation constant (Kd) was 1 nM, the koff is 0.0008 s⁻¹ and the kon is 800000 M⁻¹ s⁻¹.
Turning to B2, the equilibrium dissociation constant (Kd) came to 2 nM, the off-rate (koff) turned out to be 0.001 s⁻¹ and the kon stood at 800000 M⁻¹ s⁻¹.
Turning to B3, the Kd came out at 3 nM, the koff is 0.003 s⁻¹ and the kon stood at 1.2e+06 M⁻¹ s⁻¹.

For another assay the target is unchanged. As to the kind of experiment: SPR Biacore S200, multi-cycle (top 50 nM), run 1, recCD47 on SA chip 1330 RU, antibody as analyte, 1:1 model.
On to B1, for which the dissociation constant (Kd) stood at 1 nM, the koff amounted to 0.001 s⁻¹ and the kon turned out to be 1.5e+06 M⁻¹ s⁻¹.

The next assay has the same target. As to the kind of experiment: SPR Biacore S200, multi-cycle (top 50 nM), run 2, recCD47 on SA chip 1330 RU, antibody as analyte, 1:1 model.
Take B1: the equilibrium dissociation constant (Kd) is 1 nM, the off-rate (koff) amounted to 0.002 s⁻¹ and the kon amounted to 1.8e+06 M⁻¹ s⁻¹.
